Results taken from IntAct's records for PubMed 17891176.

B1: DNA-binding protein inhibitor ID-1 (Homo sapiens), P41134 (parent)
chain: MKVASGSTATAAAGPSCALKAGKTASGAGEVVRCLSEQSVAISRCAGGAGARLPALLDEQQVNVLLYDMNGCYSRLKELVPTLPQNRKVSKVEILQHVIDYIRDLQLELNSESEVGTPGGRGLPVRAPLSTLNGEISALTAEAACVPADDRILCR

Variants of: B1
Details: with psmd4_human PSMD4, P55036
Chain of psmd4_human PSMD4, P55036 (P55036 whole entry): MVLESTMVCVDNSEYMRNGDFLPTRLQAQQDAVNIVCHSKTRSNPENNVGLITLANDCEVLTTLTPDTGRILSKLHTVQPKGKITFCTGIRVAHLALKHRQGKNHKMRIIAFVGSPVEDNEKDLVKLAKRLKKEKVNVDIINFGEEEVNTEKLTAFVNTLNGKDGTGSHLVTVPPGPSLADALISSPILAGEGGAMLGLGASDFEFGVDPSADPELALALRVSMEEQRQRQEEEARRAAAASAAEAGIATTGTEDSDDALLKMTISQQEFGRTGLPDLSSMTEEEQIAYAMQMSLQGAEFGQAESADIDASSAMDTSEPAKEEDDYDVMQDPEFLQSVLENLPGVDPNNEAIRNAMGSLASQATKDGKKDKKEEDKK

| effect of a mutation on the interaction | Variant |
| --- | --- |
| decreasing interaction | V98G |
